The results in this text go back to PMC4165444 (Biochemistry, 2014).

The data set concerns the molecule itself. Kind of data set: crystal structure.

By stoichiometry N is commonly meant the number of molecules, sites or subunits per partner or assembly.

B1: Saccharomyces cerevisiae alcohol dehydrogenase I (enzyme, UniProt P00330 1-348, looked up)
chain: MSIPETQKGVIFYESHGKLEYKDIPVPKPKANELLINVKYSGVCHTDLHAWHGDWPLPVKLPLVGGHEGAGVVVGMGENVKGWKIGDYAGIKWLNGSCMACEYCELGNESNCPHADLSGYTHDGSFQQYATADAVQAAHIPQGTDLAQVAPILCAGITVYKALKSANLMAGHWVAISGAAGGLGSLAVQYAKAMGYRVLGIDGGEGKEELFRSIGGEVFIDFTKEKDIVGAVLKATDGGAHGVINVSVSEAAIEASTRYVRANGTTVLVGMPAGAKCCSDVFNQVVKSISIVGSYVGNRADTREALDFFARGLVKSPIKVVGLSTLPEIYEKMEKGQIVGRYVVDTSK
modifications: disulfide bond between Cys-277 residues of the two subunits of a dimer
With B1, the “stoichiometry N” value was 4 subunits per oligomer.
